Test results: the supplement of paper PMC7125110
± gives the standard error. This sample holds only a part of the variants without activity.

B1: glmS ribozyme (parent)
chain: AUAAAAGCGCCAGAACUACAGAAAUGUAGUUGACGAGGAGGAGGUUUAUCGAAUUUUCGGCGGAUGCCUCCAAA

Legend:
Conditions in all cases: with glucosamine-6-phosphate
glucosamine-6-phosphate [1] = variants of: B1; test: self-cleavage kobs at 40 uM GlcN6P; higher = faster cleavage; RNA array
Summary of the method: (§1)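 kobs was derived by fitting per-tile medians to one- or two-exponential decays after normalising signals to baseline and to non-cleaving reference variants. Those signals came from barcoded ribozyme variants transcribed in situ by E. coli RNA polymerase on sequenced MiSeq chips, followed through a hybridised Cy3 probe at 37 °C and imaged over ~14 h. Glucosamine-6-phosphate (40 μM to 10 mM) in HEPES/KCl/Mg(OAc)2 buffer was flowed in. Weighted Michaelis–Menten fits across concentrations then gave kcat and KM.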

glucosamine-6-phosphate [2] = variants of: B1; test: self-cleavage kobs at 160 uM GlcN6P; higher = faster cleavage; RNA array
Summary of the method: as §1

glucosamine-6-phosphate [3] = variants of: B1; test: self-cleavage kobs at 640 uM GlcN6P; higher = faster cleavage; RNA array
Summary of the method: as §1

glucosamine-6-phosphate [4] = variants of: B1; test: self-cleavage kobs at 2500 uM GlcN6P; higher = faster cleavage; RNA array
Summary of the method: as §1

glucosamine-6-phosphate [5] = variants of: B1; test: self-cleavage kobs at 10000 uM GlcN6P; higher = faster cleavage; RNA array
Summary of the method: as §1

Row | Variant | self-cleavage kobs at 40 uM GlcN6P (glucosamine-6-phosphate [1]) | self-cleavage kobs at 160 uM GlcN6P (glucosamine-6-phosphate [2]) | self-cleavage kobs at 640 uM GlcN6P (glucosamine-6-phosphate [3]) | self-cleavage kobs at 2500 uM GlcN6P (glucosamine-6-phosphate [4]) | self-cleavage kobs at 10000 uM GlcN6P (glucosamine-6-phosphate [5])
1 | A42C U54A | < 1e-05 s⁻¹ | < 1e-05 s⁻¹ | < 1e-05 s⁻¹ | < 1e-05 s⁻¹ | 
2 | U47C A53G | 0.000125 ± 2.2e-05 s⁻¹ | 0.000176 ± 5.7e-05 s⁻¹ | 0.00114 ± 0.00018 s⁻¹ | 0.00477 ± 0.0011 s⁻¹ | 0.00419 ± 0.00092 s⁻¹
3 | U46G G60U | < 1e-05 s⁻¹ | < 1e-05 s⁻¹ |  |  | < 1e-05 s⁻¹
4 | A42G A52G U65G | < 1e-05 s⁻¹ |  |  | 8.47e-05 ± 2.8e-05 s⁻¹ | 0.000346 ± 8.1e-05 s⁻¹
5 | U45G U57C | < 1e-05 s⁻¹ | < 1e-05 s⁻¹ |  | 3.94e-05 ± 1.4e-05 s⁻¹ | 7.89e-05 ± 9.7e-06 s⁻¹
6 | A48U G59A G66U | < 1e-05 s⁻¹ | < 1e-05 s⁻¹ | < 1e-05 s⁻¹ |  | < 1e-05 s⁻¹
7 | G43U G66C | < 1e-05 s⁻¹ | < 1e-05 s⁻¹ |  | < 1e-05 s⁻¹ | 
8 | G41U G63A | < 1e-05 s⁻¹ |  | < 1e-05 s⁻¹ | < 1e-05 s⁻¹ | < 1e-05 s⁻¹
9 | A53G C70U | 0.00158 ± 0.00015 s⁻¹ | 0.00129 ± 0.00027 s⁻¹ | 0.0139 ± 0.0036 s⁻¹ |  | 0.0616 ± 0.014 s⁻¹
10 | G43A C61A | < 1e-05 s⁻¹ | < 1e-05 s⁻¹ | < 1e-05 s⁻¹ |  | 
11 | G51C U55A | < 1e-05 s⁻¹ |  | < 1e-05 s⁻¹ |  | 
12 | U46C A48G C50A C71G | < 1e-05 s⁻¹ |  |  |  | 
13 | A48U C50U C58A | < 1e-05 s⁻¹ | < 1e-05 s⁻¹ | < 1e-05 s⁻¹ |  | 
14 | U54G C67A | 0.000326 ± 7.1e-05 s⁻¹ | 0.000481 ± 9.8e-05 s⁻¹ | 0.000916 ± 0.00018 s⁻¹ | 0.00208 ± 0.00067 s⁻¹ | 0.00623 ± 0.0012 s⁻¹
15 | A42U C61U | < 1e-05 s⁻¹ | < 1e-05 s⁻¹ | < 1e-05 s⁻¹ | < 1e-05 s⁻¹ | < 1e-05 s⁻¹
16 | U55G C68U | 0.000294 ± 3.6e-05 s⁻¹ | 0.00035 ± 8.1e-05 s⁻¹ | 0.00158 ± 0.00035 s⁻¹ | 0.000382 ± 8.7e-05 s⁻¹ | 0.00508 ± 0.00094 s⁻¹
17 | C50G G66U C67A | 0.000105 ± 1.9e-05 s⁻¹ |  |  | 4.67e-05 ± 1.7e-05 s⁻¹ | 0.000166 ± 2.7e-05 s⁻¹
18 | G43U C61U C68U | < 1e-05 s⁻¹ |  | < 1e-05 s⁻¹ |  | < 1e-05 s⁻¹
19 | G51A U55G C68G | < 1e-05 s⁻¹ |  |  |  | < 1e-05 s⁻¹
20 | G44A U56C G63A | < 1e-05 s⁻¹ |  |  |  | < 1e-05 s⁻¹
21 | G44A C61G | < 1e-05 s⁻¹ | < 1e-05 s⁻¹ |  | < 1e-05 s⁻¹ | < 1e-05 s⁻¹
22 | G41A G59A | < 1e-05 s⁻¹ | < 1e-05 s⁻¹ |  |  | 
23 | G41A G59U | < 1e-05 s⁻¹ |  | < 1e-05 s⁻¹ |  | < 1e-05 s⁻¹

Row | Variant | self-cleavage kobs at 40 uM GlcN6P (glucosamine-6-phosphate [1]) | self-cleavage kobs at 160 uM GlcN6P (glucosamine-6-phosphate [2]) | self-cleavage kobs at 640 uM GlcN6P (glucosamine-6-phosphate [3]) | self-cleavage kobs at 2500 uM GlcN6P (glucosamine-6-phosphate [4]) | self-cleavage kobs at 10000 uM GlcN6P (glucosamine-6-phosphate [5])
24 | U54A C68U | 0.000391 ± 6.1e-05 s⁻¹ | 0.000218 ± 4.6e-05 s⁻¹ | 0.000767 ± 0.00017 s⁻¹ | 0.000405 ± 0.00011 s⁻¹ | 
25 | U45G U69A | 0.000333 ± 8.4e-05 s⁻¹ |  |  | 0.000589 ± 0.00025 s⁻¹ | 0.000362 ± 7.9e-05 s⁻¹
26 | G43C A48U G51C G63A C71U | < 1e-05 s⁻¹ |  |  |  | < 1e-05 s⁻¹
27 | U55G U57G | < 1e-05 s⁻¹ |  | 5.98e-05 ± 2.6e-05 s⁻¹ |  | 5.12e-05 ± 1.3e-05 s⁻¹
28 | A48C C50U | < 1e-05 s⁻¹ | < 1e-05 s⁻¹ | < 1e-05 s⁻¹ | < 1e-05 s⁻¹ | < 1e-05 s⁻¹
29 | G41A G63A | < 1e-05 s⁻¹ |  | < 1e-05 s⁻¹ |  | < 1e-05 s⁻¹
30 | A53U C61U | < 1e-05 s⁻¹ | < 1e-05 s⁻¹ |  |  | 
31 | G51A G60C | < 1e-05 s⁻¹ |  | < 1e-05 s⁻¹ |  | 
32 | U45C C50U | < 1e-05 s⁻¹ | < 1e-05 s⁻¹ | < 1e-05 s⁻¹ |  | 
33 | G41C C61U | < 1e-05 s⁻¹ | < 1e-05 s⁻¹ | < 1e-05 s⁻¹ | < 1e-05 s⁻¹ | < 1e-05 s⁻¹
34 | C50G A52C U69A | 8.7e-05 ± 2.7e-05 s⁻¹ |  |  |  | 4.8e-05 ± 1.6e-05 s⁻¹
35 | U45A C70G | 0.000107 ± 4.1e-05 s⁻¹ | 0.000105 ± 3.6e-05 s⁻¹ | 0.000198 ± 7.9e-05 s⁻¹ | 0.00053 ± 0.00019 s⁻¹ | 0.000826 ± 0.00032 s⁻¹
36 | U46C G62C | < 1e-05 s⁻¹ |  |  |  | < 1e-05 s⁻¹
37 | G43U U49A G60A C68U | < 1e-05 s⁻¹ |  |  |  | < 1e-05 s⁻¹
38 | A42U U49G U57A C61G | < 1e-05 s⁻¹ |  | < 1e-05 s⁻¹ | < 1e-05 s⁻¹ | < 1e-05 s⁻¹
39 | A53C G63U C67G U69G | < 1e-05 s⁻¹ |  |  |  | 
40 | A53U U69C | 0.000317 ± 6.8e-05 s⁻¹ | 0.000141 ± 5.3e-05 s⁻¹ | 0.00104 ± 0.0003 s⁻¹ |  | 0.00288 ± 0.00074 s⁻¹
41 | A42G U45G | 0.000836 ± 0.00024 s⁻¹ |  |  |  | 0.0514 ± 0.014 s⁻¹
42 | U57C G59U C61U | < 1e-05 s⁻¹ |  |  |  | < 1e-05 s⁻¹
43 | U45G C50A | < 1e-05 s⁻¹ |  |  |  | 
44 | A42U G51A | < 1e-05 s⁻¹ |  | < 1e-05 s⁻¹ |  | 
45 | U45G G62A C70G C71G | < 1e-05 s⁻¹ |  |  |  | 
